One data set has as its target T1, SaTTM (Saci_0718) (Sulfolobus acidocaldarius, UniProt Q4JAT2).
T1 construct: full ORF, C-terminal His6 (pSVA1028), expressed in E. coli BL21-Gold (DE3), heat step, IMAC, SEC; homodimer of 56 kDa
The experiment in a line: X-ray crystal structure of the complex. Type of data set: binding. As to conditions: 10 mM CaCl2, 5 mM PPi, pH 4.6, 4 °C; also 10 mM MgCl2 crystal without bound Mg2+; closed tunnel, active site.

Data set [1] concerns the molecule itself. The experiment in a line: SEC; analytical Superdex 200 10/300 GL, SEC buffer (200 mM NaCl, 50 mM Tris, pH 9.0), compared with standards. Background: In gel filtration, larger molecules generally elute earlier.
Substrate in data set [2]: O=P(O)(O)OP(=O)(O)OP(=O)(O)O
The experiment in a line: malachite green phosphate release, Michaelis-Menten fit. Type of data set: biochemical, Sulfolobus acidocaldarius. The note with it: 2 mM MgCl2, 50 mM Tris, 200 mM NaCl, pH 8.6, 75 °C, 5 nM enzyme.

In the case of `O=P(O)(O)OP(=O)(O)O` [PPi, pyrophosphate], on SaTTM (Saci_0718), the “X-ray crystal structure of the complex” value is recorded as “we determined crystal structures of SaTTM in complex with pyrophosphate”.

B1: Sulfolobus acidocaldarius triphosphate tunnel metalloenzyme (SaTTM) (enzyme, Sulfolobus acidocaldarius DSM 639, UniProt Q4JAT2 1-185, looked up)
chain: MSYIEREIKLRVISPSLEEIEERIRNNYTFINEEHQIDIYYNNPIRDFRKSDEALRLRNTNGKVILTYKGPKQSKETKTREEIEVEVSDLHKMDLILRKLGFIRSFQVEKIRKNYKYADFIISLDSIKELGEFIEIEGINKTEKELISFVDEFVKKHQIQYEKTIKSYLELLVEHAKKTNNSNTH
notes: SaTTM (Saci_0718), CYTH ortholog of Sulfolobus acidocaldarius DSM 639; ORF amplified from the genome and cloned NcoI/BamHI into pSA4 to give pSVA1028; No step that removes the His6 tag is described; The NcoI cloning site may have changed the residue after the first methionine; also called Saci_0718; S. acidocaldarius CYTH enzyme; source: E. coli BL21-Gold (DE3), purified (heat step 70 °C, Ni-NTA, …)
One may read the stoichiometry N as a count of units in the complex or per binding partner. The term kcat denotes the maximal rate divided by the concentration of active sites. In the case of B1, the “stoichiometry N” value in data set [1] amounted to 2. For the same molecule, in data set [2], the Km is given as 41.0 (95% CI 29.8 to 55.4) μM and the kcat turned out to be 5934 s⁻¹.
